Experimental data published in paper PMC3368277.

Target: His-tagged recombinant C0–C1 domains of cardiac myosin binding protein-C (mouse)
Assay: pull-down

Chain of His-tagged recombinant C0–C1 domains of cardiac myosin binding protein-C (mouse) (O70468 whole entry, the tested form may be a part): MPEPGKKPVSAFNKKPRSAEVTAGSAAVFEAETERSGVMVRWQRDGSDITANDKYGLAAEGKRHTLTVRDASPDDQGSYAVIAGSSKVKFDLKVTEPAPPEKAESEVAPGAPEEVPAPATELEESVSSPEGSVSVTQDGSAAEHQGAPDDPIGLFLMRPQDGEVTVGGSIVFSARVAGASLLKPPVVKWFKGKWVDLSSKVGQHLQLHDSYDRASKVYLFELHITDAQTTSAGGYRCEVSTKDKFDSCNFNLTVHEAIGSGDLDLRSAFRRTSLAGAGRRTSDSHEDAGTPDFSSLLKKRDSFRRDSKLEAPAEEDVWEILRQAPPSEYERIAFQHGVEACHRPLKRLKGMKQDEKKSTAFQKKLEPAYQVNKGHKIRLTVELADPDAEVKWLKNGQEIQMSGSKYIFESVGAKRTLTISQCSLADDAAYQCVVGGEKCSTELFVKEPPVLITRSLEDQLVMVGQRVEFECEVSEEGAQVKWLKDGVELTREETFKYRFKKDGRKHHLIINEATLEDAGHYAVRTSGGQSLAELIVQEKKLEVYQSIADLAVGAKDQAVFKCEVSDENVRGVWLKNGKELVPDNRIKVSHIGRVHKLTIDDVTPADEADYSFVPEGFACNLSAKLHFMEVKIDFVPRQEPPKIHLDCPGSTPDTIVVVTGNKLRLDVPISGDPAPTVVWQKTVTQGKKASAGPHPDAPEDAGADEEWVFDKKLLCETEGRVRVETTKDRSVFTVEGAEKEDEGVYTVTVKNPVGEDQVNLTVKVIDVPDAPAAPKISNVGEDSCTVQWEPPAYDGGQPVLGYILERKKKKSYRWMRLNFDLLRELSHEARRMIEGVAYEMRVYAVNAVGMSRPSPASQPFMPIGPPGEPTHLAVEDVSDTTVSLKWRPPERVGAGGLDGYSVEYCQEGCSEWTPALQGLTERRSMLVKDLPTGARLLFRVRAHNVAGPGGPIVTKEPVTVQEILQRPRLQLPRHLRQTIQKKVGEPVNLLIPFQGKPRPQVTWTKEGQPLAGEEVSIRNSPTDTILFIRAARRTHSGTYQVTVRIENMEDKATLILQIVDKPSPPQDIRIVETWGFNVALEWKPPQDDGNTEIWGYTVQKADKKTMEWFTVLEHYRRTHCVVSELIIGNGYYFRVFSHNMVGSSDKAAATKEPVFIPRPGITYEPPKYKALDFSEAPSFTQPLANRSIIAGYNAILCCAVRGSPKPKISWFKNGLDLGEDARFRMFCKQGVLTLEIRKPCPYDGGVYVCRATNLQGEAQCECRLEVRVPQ

Question: For “sarcomeric actin (from UniProt P68033 1-377) (natural protein)”, which reduction of binding against C0–C2 (quantified blot) is on record?
Answer: 50%
